Laboratory results: publication PMC7618200 (The Biochemical journal, 2025)

B1: MyD88 peptide 125AEKPLQVAAVDSSVPRT141 (17-mer) [human] / SPOP MATH domain (SPOP^MATH; residues 28-166) [human] (parent complex)
chain 1: AEKPLQVAAVDSSVPRT
chain 2: KVVKFSYMWTINNFSFCREEMGEVIKSSTFSSGANDKLKWCLRVNPKGLDEESKDYLSLYLLLVSCPKSEVRAKFKFSILNAKGEETKAMESQRAYRFVQGKDWGFKKFIRRDFLLDEANGLLPDDKLTLFCEVSVVQD

Variants of: B1
Test: FP competition assay; competitor against fluorescently labeled Puc peptide

| IC50 [µM] | Variant |
| --- | --- |
| ~2110 | chain 1 AEKPLQVAAVAAAVPRT |
